The record followed here is US11814663B2, “Microorganisms with improved 1,3-propanediol and butyric acid production” (METABOLIC EXPLORER, priority 2018, dated 2023).

Format in all cases: biochemical, Clostridium acetobutylicum ATCC824
Data set [1] deals with T1, Clostridium acetobutylicum glycerol kinase GlpK variant GlpK*(H22Y/A347T/V466M), SEQ ID NO: 13 (Clostridium acetobutylicum, UniProt Q97JG4, A347T/H22Y/V466M).
T1 construct: made in house; host or cells: E. coli BL21(DE3) star
T1 sequence (Q97JG4 1-498 H22Y/A347T/V466M): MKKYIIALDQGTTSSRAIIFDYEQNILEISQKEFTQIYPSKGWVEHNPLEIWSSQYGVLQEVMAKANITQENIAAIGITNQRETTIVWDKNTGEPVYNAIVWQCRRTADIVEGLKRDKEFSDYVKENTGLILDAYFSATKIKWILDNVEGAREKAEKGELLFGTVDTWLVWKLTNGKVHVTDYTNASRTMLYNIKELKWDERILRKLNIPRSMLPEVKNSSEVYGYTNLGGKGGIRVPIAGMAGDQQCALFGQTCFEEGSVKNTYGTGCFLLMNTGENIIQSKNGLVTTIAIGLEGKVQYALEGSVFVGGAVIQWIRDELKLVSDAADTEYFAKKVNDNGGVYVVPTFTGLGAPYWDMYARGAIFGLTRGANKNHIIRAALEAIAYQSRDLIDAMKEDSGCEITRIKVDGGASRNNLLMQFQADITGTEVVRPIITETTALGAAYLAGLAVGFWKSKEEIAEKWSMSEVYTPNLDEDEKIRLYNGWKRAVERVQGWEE
The data set is described as follows: Glycerol kinase activity towards glycerol (ADP appearance coupled to NADH oxidation), H22Y/A347T/V466M. To be noted: pH 9, 30° C., 2 mM ATP, 0.01-50 mM glycerol. The text has this: (§1) Three different point mutations were identified in glpK gene in the clone PD0557Vc05 leading to the mutant protein GlpK* with H22Y, A347T and V466M (table 2 above). In order to better characterize the effect of the mutations, we tested them individually or in combination. Therefore, the alleles coding for the mutated glycerol kinase were cloned into the expression plasmid pPAL7 (Biorad®) and the plasmids obtained were transformed into E. coli strain BL21(DE3) star to purify each mutated protein and perform biochemical experiments. […]
(§2) The proteins were purified from the crude cell-extract by affinity on a Profinity column (BIORAD, Bio-Scale Mini Profinity exact cartridge 5 ml) according to the protocol recommended by the manufacturer. […] Protein concentration was measured using the Bradford protein assay.
(§3) Determination of kinetic parameters of GlpK wild type and mutants Glycerol kinase activity (GLPK) that catalyses the following reaction: Glycerol+ATP=>Glycerol-3-Phosphate+ADP, was determined by measuring the ADP appearance by enzymatic coupling to NADH oxidation. […] The oxidation of NADH was monitored at 30° C. by absorbance at 340 nm on a spectrophotometer (λ340=6290 M^−1 cm^−1).
(§4) One unit of enzyme activity was defined as the amount of enzyme catalyzing the decrease of 1 μmol of NADH per min. Kinetic parameters were determined with Sigmaplot by fitting to the Michaelis-Menten equation.

In data set [2] the target is T2, Clostridium acetobutylicum glycerol kinase GlpK wt (glpK, CA_C1321, Uniprot Q97JG4), SEQ ID NO: 1 (Clostridium acetobutylicum, UniProt Q97JG4).
T2 construct: GlpK wt; Q97JG4; made in house; host or cells: E. coli BL21(DE3) star
T2 sequence (Q97JG4 1-498): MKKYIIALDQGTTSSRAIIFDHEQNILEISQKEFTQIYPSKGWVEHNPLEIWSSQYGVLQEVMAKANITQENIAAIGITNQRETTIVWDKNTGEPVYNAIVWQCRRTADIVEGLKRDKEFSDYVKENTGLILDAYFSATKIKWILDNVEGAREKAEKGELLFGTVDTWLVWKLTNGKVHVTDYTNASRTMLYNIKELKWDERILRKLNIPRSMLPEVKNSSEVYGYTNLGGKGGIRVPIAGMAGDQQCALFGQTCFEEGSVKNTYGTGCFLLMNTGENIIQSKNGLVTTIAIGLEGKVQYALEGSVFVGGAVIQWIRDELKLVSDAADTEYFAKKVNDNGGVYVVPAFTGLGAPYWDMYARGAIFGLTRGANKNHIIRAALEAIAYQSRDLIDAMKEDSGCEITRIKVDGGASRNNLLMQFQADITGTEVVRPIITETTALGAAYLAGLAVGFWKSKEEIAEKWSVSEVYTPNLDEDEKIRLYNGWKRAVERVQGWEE
Nature of the data set: Glycerol kinase activity towards glycerol (ADP appearance coupled to NADH oxidation), wild type. To be noted: pH 9, 30° C., 2 mM ATP, 0.01-50 mM glycerol.
Text: as §1, §2, §3, §4

Substrate in data set [3]: OCC(O)CO
The data set is described as follows: Glycerol kinase activity towards glycerol (ADP appearance coupled to NADH oxidation), H22Y/A347T/V466M. The note with it: other: GlpK* (H22Y/A347T/V466M), pH 9, 30° C., 2 mM ATP, 0.01-50 mM glycerol.
Text: Three different point mutations were identified in glpK gene in the clone PD0557Vc05 leading to the mutant protein GlpK* with H22Y, A347T and V466M (table 2 above). In order to better characterize the effect of the mutations, we tested them individually or in combination. Therefore, the alleles coding for the mutated glycerol kinase were cloned into the expression plasmid pPAL7 (Biorad®) and the plasmids obtained were transformed into E. coli strain BL21(DE3) star to purify each mutated protein and perform biochemical experiments.
Cultures of the seven strains 1 to 7 for the overproduction of the proteins were realized in a 2 L Erlenmeyer flask, using LB broth (Bertani, 1951) that was supplemented with 5 g/L glucose and 100 mg/L of ampicillin. An overnight culture was used to inoculate a 500 mL culture to an OD600 nm of about 0.15. The culture was first kept on a shaker at 37° C. and 200 rpm until OD600 nm was about 0.5 and then the culture was moved on a second shaker at 25° C. and 200 rpm until OD600 nm was 0.6-0.8 (about one hour), before induction with 500 μM IPTG. The culture was kept at 25° C. and 200 rpm until OD600 nm was around 4, and then it was stopped. Cells were centrifuged at 7000 rpm, 5 minutes at 4° C., and then stored at −20° C. This protocol was the same for strains 1 to 7.
For each strain, about 250 mg of E. coli biomass was suspended in 40 ml of 100 mM potassium phosphate pH 7.6, and a protease inhibitor cocktail. The cells suspension (15 ml per conical tube) was sonicated on ice (Bandelin sonoplus, 70 w) in a 50 ml conical tube during 8 cycles of 30 sec with 30 sec intervals. After sonication, cells were incubated for 30 min at room temperature with 5 mM MgCl2 and 1 UI/ml of DNaseI. Cells debris were removed by centrifugation at 12000 g for 30 min at 4° C.
The proteins were purified from the crude cell-extract by affinity on a Profinity column (BIORAD, Bio-Scale Mini Profinity exact cartridge 5 ml) according to the protocol recommended by the manufacturer. The crude extract was loaded on a 5 ml Profinity exact cartridge equilibrated with 100 mM potassium phosphate pH 7.6. […] Protein concentration was measured using the Bradford protein assay.
as §3, §4

In the case of `OCC(O)CO` [glycerol], the values for the Kcat/km in data set [1] and in data set [2] were 33900 M⁻¹ s⁻¹ and 1.52e+06 M⁻¹ s⁻¹, respectively.

B1: Clostridium acetobutylicum glycerol kinase GlpK variant GlpK*(H22Y/A347T/V466M), SEQ ID NO: 13 (Clostridium acetobutylicum ATCC 824; A347T/H22Y/V466M) (protein)
chain: MKKYIIALDQGTTSSRAIIFDYEQNILEISQKEFTQIYPSKGWVEHNPLEIWSSQYGVLQEVMAKANITQENIAAIGITNQRETTIVWDKNTGEPVYNAIVWQCRRTADIVEGLKRDKEFSDYVKENTGLILDAYFSATKIKWILDNVEGAREKAEKGELLFGTVDTWLVWKLTNGKVHVTDYTNASRTMLYNIKELKWDERILRKLNIPRSMLPEVKNSSEVYGYTNLGGKGGIRVPIAGMAGDQQCALFGQTCFEEGSVKNTYGTGCFLLMNTGENIIQSKNGLVTTIAIGLEGKVQYALEGSVFVGGAVIQWIRDELKLVSDAADTEYFAKKVNDNGGVYVVPTFTGLGAPYWDMYARGAIFGLTRGANKNHIIRAALEAIAYQSRDLIDAMKEDSGCEITRIKVDGGASRNNLLMQFQADITGTEVVRPIITETTALGAAYLAGLAVGFWKSKEEIAEKWSMSEVYTPNLDEDEKIRLYNGWKRAVERVQGWEE
notes: GlpK*(H22Y/); made in house; host or cells: E. coli BL21(DE3) star
Consider B1, for which, in data set [3], the Km (commonly the concentration of substrate that gives half-maximal velocity) amounted to 39 ± 2 µM; the Vmax (in general, the top rate of the reaction or transport when substrate is in excess) is recorded as 1404 ± 13 nmol/min/mg; the kcat (in general, the maximal rate divided by the concentration of active sites) stood at 1.32 ± 0.012 s⁻¹; the catalytic efficiency (kcat/Km) (as a rule, the turnover number divided by the Michaelis constant) stood at 33900 ± 2300 M⁻¹ s⁻¹.
